Consider six molecules from CN114716553A (BEIJING KENUO XINCHENG TECH CO LTD, dated 2022).

In assay [1] the target is T1, 人LILRB4的重组蛋白 (phage library screening antigen) (human, UniProt Q8NHJ6 22-259, limits assumed).
T1 construct: May be the same protein as the immunogen or as m14
Briefly: solid phase screening of phage library.

Assay [2] deals with T2, 人LILRB4重组蛋白(购于义翘，Cat.16742-H08H) (human, UniProt Q8NHJ6 22-259).
T2 construct: Bought protein; also called human LILRB4 recombinant protein
Briefly: BLI (Octet QKe), antibody captured on AHC probe, antigen 100 nM, 1:1 Langmuir fit. Background: In BLI a coated tip is dipped into the sample, and binding shifts an interference pattern.

Assay [3] addresses T3, 人LILRB4 (on LILRB4-positive cells) (human, UniProt Q8NHJ6 22-448). Nature of the assay: cell-based or functional assay.
In assay [4] the target is T3, 人LILRB4 (on LILRB4-positive cells). Briefly: flow cytometry on RPMI-8226 cells. For orientation: Flow cytometry measures light scatter and fluorescence of single cells or particles in a stream.
The target is the same in assay [5]. Briefly: flow cytometry on THP-1 cells.

B1: C3 (VHH)
VHH: QVQLQESGGGLVQAGGSLRLSCVASEYIYTRCNMAWYRQAPGKERELVSAFDIGDTLYYADSVKGRFTISQDNAKNTVYLQMNSLKPEDTAMYYCNTVGVKPGGGSWCFNPDYWGQGTQVTVSS
notes: also called 噬菌体展示的纳米抗体C3
With B1, in assay [1], the binding result was “binds”.

B2: B2 (VHH)
VHH: QVQLQESGGGPVQAGGSLRLSCAASEYSYRRHCMAWFRQAPGKEREGVATIYTGGGITRYADSVKGRFTISQDNAKNTVYLQMNSLKPEDTAMYYCAADIASRACVTDPFPLERARFSAWGQGTQVTVSS
notes: also called 噬菌体展示的纳米抗体B2
As for B2, the binding result in assay [1] is on record as “binds”.

B3: F1 (VHH)
VHH: QVQLQESGGGLVQAGGSLRLSCAASEYSYRRHCMAWFRQAPGKEREGVATIYTGGGITRYADSVKGRFTISQDNAKNTVYLQMNSLKPEDTAMYYCAADIASRACVTDPFPLERARFSAWGQGTQVTVSS
notes: also called 噬菌体展示的纳米抗体F1
For the molecule B3, in assay [1], the binding result was “binds”.

B4: 对照抗体193 (antibody, IgG1, V domains shown)
VH: EVQLVESGGGLVQPGGSLRLSCAASGFSLSSSYWISWVRQAPGKGLEWIGSIDSGSVGITYYATWVKGRFTISRDNSKNTLYLQMNSLRAEDTAVYYCARHGDNWALDLWGQGTLVTVSS
VL: DIQMTQSPSTLSASVGDRVTITCRASQSINSWLAWYQQKPGKAPKLLIYKASTLASGVPSRFSGSGSGTEFTLTISSLQPDDAATYYCQHGYIRGDLDNVFGGGTKVEIK
notes: Variable regions cloned into vectors with human kappa / IgG1 constant regions and expressed in HEK293; also called 同靶点对照抗体193
For orientation: Kd means the constant that tells how readily two partners part at equilibrium. What is called koff is the first-order rate constant of dissociation. A lower koff goes with slow dissociation. For orientation: kon means the second-order rate constant of association. A low value points to slower complex formation. For orientation: EC50 means the concentration giving half of the maximal effect. A lower EC50 goes with higher potency in that assay. In assay [2], B4 came in with a Kd of 0.721 nM, a koff of 0.00022 s⁻¹ and a kon of 305000 M⁻¹ s⁻¹. Besides, the “EC50 of T cell activation (LILRB4 Effector Reporter cells with APOE/TCR Activator/CHO cells, luciferase)” value in assay [3] is 0.094 nM. In assay [4], this molecule came in with an EC50 of 0.227 nM. For the same molecule, in assay [5], the EC50 came to 1.43 nM.

B5: hzD2-1 (Fc fusion)
chain: EVQLVESGGGLVQPGGSLRLSCAASGFTVSSDYMGWFRQAPGKEREGVACINTNGGETYHANSVSGRFTISRDNSKNTLYLQMNSLRAEDTAVYYCARGRTNPDSYGGSRCLLAPEYTYWGQGTLVTVSS
notes: Humanised VHH of D2 fused to human Fc, expressed in HEK293; also called D2人源化分子hzD2-1; hzD2-1人源化抗体; not shown: human Fc (hFc) from the expression vector
For the molecule B5, in assay [2], the Kd came to 1.03 nM, the koff was 0.000172 s⁻¹ and the on-rate constant (kon) was 167000 M⁻¹ s⁻¹. In assay [4], this molecule showed an EC50 of 0.221 nM.

B6: hzD2-2 (Fc fusion)
chain: EVQLVESGGGLVQPGGSLRLSCAASGYTASSDYMGWFRQAPGKEREGVACINTNGGETYHANSVSGRFTISRDNSKNTLYLQMNSLRAEDTAVYYCARGRTNPDSYGGSRCLLAPEYTYWGQGTLVTVSS
notes: Humanised VHH of D2 fused to human Fc, expressed in HEK293; also called D2人源化分子hzD2-2; hzD2-2人源化抗体; not shown: human Fc (hFc) from the expression vector
In assay [2], B6 displayed a Kd of 0.948 nM, a koff of 0.000175 s⁻¹ and a kon of 185000 M⁻¹ s⁻¹. In assay [4], this molecule returned a concentration giving a half-maximal response (EC50) of 0.215 nM.
